Laboratory results published in publication PMC5349785 (Molecular Biology of the Cell, 2017).

Biological target: CSC with GFP-tagged Vps29 (CSC-GFP) (S. cerevisiae, UniProt P34110;P40335;P38759)
Assay: pull-down

CSC with GFP-tagged Vps29 (CSC-GFP), sequence (P34110 whole entry, chain 1 of 3): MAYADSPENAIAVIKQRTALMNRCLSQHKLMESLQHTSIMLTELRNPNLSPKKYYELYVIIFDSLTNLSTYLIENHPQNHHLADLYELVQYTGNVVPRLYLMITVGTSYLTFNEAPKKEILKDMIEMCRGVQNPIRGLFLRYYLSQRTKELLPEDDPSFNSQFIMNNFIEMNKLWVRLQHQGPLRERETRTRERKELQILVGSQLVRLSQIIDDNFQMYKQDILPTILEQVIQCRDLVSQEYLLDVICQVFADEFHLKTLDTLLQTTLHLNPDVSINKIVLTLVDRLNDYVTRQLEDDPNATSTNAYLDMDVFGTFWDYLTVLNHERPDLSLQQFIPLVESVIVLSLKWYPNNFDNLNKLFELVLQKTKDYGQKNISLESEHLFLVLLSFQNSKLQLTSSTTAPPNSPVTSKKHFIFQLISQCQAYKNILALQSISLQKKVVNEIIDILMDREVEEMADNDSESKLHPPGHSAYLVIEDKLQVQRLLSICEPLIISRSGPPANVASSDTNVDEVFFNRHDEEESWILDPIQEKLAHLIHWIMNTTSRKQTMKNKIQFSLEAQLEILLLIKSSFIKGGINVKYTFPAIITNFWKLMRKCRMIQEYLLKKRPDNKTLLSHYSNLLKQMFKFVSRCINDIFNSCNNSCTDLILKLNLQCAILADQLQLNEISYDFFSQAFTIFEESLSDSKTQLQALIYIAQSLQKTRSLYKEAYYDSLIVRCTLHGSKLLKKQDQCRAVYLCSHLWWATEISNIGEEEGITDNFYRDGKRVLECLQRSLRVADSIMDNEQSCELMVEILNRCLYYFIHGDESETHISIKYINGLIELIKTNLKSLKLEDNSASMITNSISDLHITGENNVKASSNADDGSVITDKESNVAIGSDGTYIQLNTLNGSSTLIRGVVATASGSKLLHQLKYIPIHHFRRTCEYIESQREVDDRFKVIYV
CSC with GFP-tagged Vps29 (CSC-GFP), sequence (P40335 whole entry, chain 2 of 3): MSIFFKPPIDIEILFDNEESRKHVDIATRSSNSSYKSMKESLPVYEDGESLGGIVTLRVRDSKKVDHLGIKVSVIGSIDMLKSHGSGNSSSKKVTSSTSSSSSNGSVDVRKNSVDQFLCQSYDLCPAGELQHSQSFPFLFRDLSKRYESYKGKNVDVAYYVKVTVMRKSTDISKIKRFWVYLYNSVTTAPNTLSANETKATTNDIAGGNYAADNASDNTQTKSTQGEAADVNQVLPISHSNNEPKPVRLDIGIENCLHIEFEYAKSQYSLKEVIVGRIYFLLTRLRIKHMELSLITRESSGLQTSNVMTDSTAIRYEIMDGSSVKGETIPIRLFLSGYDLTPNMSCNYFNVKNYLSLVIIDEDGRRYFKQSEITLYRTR
CSC with GFP-tagged Vps29 (CSC-GFP), sequence (P38759 whole entry, chain 3 of 3): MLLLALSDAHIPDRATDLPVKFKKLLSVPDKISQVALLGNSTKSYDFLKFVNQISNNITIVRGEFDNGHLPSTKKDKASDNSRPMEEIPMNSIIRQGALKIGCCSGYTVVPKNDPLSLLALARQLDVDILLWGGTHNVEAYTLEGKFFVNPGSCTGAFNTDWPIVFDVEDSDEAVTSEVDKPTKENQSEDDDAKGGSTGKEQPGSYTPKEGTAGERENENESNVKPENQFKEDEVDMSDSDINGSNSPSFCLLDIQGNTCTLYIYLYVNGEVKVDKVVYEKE

| binding result | Binder |
| --- | --- |
| binds | SNX-BAR complex with GFP-tagged Vps17 (SNX-BAR-GFP) (complex) chain 1: MDYEDNLEAPVWDELNHEGDKTQSLVSNSIESIGQISTNEERKDNELLETTASFADKIDLDSAPEWKDPGLSVAGNPQLEEHDNSKADDLINSLAPEQDPIADLKNSTTQFIATRESGGALFTGNANSPLVFDDTIYDANTSPNTSKSISGRRSGKPRILFDSARAQRNSKRNHSLKAKRTTASDDTIKTPFTDPLKKAEKENEFVEEPLDDRNERRENNEGKFTASVEKNILEQVDRPLYNLPQTGANISSPAEVEENSEKFGKTKIGSKVPPTEKAVAFKVEVKDPVKVGELTSIHVEYTVISESSLLELKYAQVSRRYRDFRWLYRQLQNNHWGKVIPPPPEKQSVGSFKENFIENRRFQMESMLKKICQDPVLQKDKDFLLFLTSDDFSSESKKRAFLTGSGAINDSNDLSEVRISEIQLLGAEDAAEVLKNGGIDAESHKGFMSISFSSLPKYNEADEFFIEKKQKIDELEDNLKKLSKSLEMVDTSRNTLAASTEEFSSMVETLASLNVSEPNSELLNNFADVHKSIKSSLERSSLQETLTMGVMLDDYIRSLASVKAIFNQRSKLGYFLVVIENDMNKKHSQLGKLGQNIHSEKFREMRKEFQTLERRYNLTKKQWQAVGDKIKDEFQGFSTDKIREFRNGMEISLEAAIESQKECIELWETFYQTNL chain 2: MTSAVPYDPYDDLDNNPFAEPQEEDSEPAATTTDGSSSMSEERVGTEQTAASVQDNGTANNIQNGLGEEGNATRSKTSNEHNENQQPSQPSERVILPERSDEKKKYTLLAKVTGLERFGSATGKKENPTIIFDCSTNLPTFRKQQYKNVKKSYEEFHQLFKYLNVAIQESFVPTLPSAYTTFGINSEEDRMKVTRNFQLWFNRLSQDPLIIRNEEVAFFIESDFNTYTPINKSKSLASGLKRKTLKQLAPPYDEITELAEFRPLVKSIYVVSQSLQEKLLRVSRNRKMMVQEENAFGQDFVNLDEHNKLYRRYGKILTAVGDIDSIIATMDMATLYDGLEWIVRDAYAVKEALTNRHFIMRNLVQAQQNSKAKQEQARRFRSRRDINPMKIDEALRQLKAAAKNEQVLTLKLQRITSNMIIERKQWISWYEEWIRSSIKEFTLRKIEYERKKLTLLERVRSDIRKADENGGLSRLGRHAVSNNNSDTSQTLKGDSWTGESNRKSQIPINKIAHTEFDDELFTEDDGYNSQDSDTTSLNARHAASLLGMSTK |
| binds | N-terminal fragment of Vps5 (residues 1-280) (domain or fragment) MDYEDNLEAPVWDELNHEGDKTQSLVSNSIESIGQISTNEERKDNELLETTASFADKIDLDSAPEWKDPGLSVAGNPQLEEHDNSKADDLINSLAPEQDPIADLKNSTTQFIATRESGGALFTGNANSPLVFDDTIYDANTSPNTSKSISGRRSGKPRILFDSARAQRNSKRNHSLKAKRTTASDDTIKTPFTDPLKKAEKENEFVEEPLDDRNERRENNEGKFTASVEKNILEQVDRPLYNLPQTGANISSPAEVEENSEKFGKTKIGSKVPPTEKAVA |
